# From patent US20210171613A1
# B1: Parent A26.8 VHH (VHH, not shown: small tags and cut ends)
# VHH: QVKLEESGGGLVQAGGSLRLSCAASERTFSRYPVAWFRQAPGAEREFVAVISSTGTSTYYADSVKGRFTISRDNAKVTVYLQMNNLKREDTAVYFCAVNSQRTRLQDPNEYDYWGQGTQVTVSS
# Biological target: Clostridium difficile toxin A (TcdA) (Clostridium difficile), P16154
# Assay: SPR (Biacore 3000), VHH over immobilized TcdA, 1:1 fit
# Details: remark: other sources report otherwise
# Sequence of Clostridium difficile toxin A (TcdA) (Clostridium difficile), P16154 (P16154 whole entry): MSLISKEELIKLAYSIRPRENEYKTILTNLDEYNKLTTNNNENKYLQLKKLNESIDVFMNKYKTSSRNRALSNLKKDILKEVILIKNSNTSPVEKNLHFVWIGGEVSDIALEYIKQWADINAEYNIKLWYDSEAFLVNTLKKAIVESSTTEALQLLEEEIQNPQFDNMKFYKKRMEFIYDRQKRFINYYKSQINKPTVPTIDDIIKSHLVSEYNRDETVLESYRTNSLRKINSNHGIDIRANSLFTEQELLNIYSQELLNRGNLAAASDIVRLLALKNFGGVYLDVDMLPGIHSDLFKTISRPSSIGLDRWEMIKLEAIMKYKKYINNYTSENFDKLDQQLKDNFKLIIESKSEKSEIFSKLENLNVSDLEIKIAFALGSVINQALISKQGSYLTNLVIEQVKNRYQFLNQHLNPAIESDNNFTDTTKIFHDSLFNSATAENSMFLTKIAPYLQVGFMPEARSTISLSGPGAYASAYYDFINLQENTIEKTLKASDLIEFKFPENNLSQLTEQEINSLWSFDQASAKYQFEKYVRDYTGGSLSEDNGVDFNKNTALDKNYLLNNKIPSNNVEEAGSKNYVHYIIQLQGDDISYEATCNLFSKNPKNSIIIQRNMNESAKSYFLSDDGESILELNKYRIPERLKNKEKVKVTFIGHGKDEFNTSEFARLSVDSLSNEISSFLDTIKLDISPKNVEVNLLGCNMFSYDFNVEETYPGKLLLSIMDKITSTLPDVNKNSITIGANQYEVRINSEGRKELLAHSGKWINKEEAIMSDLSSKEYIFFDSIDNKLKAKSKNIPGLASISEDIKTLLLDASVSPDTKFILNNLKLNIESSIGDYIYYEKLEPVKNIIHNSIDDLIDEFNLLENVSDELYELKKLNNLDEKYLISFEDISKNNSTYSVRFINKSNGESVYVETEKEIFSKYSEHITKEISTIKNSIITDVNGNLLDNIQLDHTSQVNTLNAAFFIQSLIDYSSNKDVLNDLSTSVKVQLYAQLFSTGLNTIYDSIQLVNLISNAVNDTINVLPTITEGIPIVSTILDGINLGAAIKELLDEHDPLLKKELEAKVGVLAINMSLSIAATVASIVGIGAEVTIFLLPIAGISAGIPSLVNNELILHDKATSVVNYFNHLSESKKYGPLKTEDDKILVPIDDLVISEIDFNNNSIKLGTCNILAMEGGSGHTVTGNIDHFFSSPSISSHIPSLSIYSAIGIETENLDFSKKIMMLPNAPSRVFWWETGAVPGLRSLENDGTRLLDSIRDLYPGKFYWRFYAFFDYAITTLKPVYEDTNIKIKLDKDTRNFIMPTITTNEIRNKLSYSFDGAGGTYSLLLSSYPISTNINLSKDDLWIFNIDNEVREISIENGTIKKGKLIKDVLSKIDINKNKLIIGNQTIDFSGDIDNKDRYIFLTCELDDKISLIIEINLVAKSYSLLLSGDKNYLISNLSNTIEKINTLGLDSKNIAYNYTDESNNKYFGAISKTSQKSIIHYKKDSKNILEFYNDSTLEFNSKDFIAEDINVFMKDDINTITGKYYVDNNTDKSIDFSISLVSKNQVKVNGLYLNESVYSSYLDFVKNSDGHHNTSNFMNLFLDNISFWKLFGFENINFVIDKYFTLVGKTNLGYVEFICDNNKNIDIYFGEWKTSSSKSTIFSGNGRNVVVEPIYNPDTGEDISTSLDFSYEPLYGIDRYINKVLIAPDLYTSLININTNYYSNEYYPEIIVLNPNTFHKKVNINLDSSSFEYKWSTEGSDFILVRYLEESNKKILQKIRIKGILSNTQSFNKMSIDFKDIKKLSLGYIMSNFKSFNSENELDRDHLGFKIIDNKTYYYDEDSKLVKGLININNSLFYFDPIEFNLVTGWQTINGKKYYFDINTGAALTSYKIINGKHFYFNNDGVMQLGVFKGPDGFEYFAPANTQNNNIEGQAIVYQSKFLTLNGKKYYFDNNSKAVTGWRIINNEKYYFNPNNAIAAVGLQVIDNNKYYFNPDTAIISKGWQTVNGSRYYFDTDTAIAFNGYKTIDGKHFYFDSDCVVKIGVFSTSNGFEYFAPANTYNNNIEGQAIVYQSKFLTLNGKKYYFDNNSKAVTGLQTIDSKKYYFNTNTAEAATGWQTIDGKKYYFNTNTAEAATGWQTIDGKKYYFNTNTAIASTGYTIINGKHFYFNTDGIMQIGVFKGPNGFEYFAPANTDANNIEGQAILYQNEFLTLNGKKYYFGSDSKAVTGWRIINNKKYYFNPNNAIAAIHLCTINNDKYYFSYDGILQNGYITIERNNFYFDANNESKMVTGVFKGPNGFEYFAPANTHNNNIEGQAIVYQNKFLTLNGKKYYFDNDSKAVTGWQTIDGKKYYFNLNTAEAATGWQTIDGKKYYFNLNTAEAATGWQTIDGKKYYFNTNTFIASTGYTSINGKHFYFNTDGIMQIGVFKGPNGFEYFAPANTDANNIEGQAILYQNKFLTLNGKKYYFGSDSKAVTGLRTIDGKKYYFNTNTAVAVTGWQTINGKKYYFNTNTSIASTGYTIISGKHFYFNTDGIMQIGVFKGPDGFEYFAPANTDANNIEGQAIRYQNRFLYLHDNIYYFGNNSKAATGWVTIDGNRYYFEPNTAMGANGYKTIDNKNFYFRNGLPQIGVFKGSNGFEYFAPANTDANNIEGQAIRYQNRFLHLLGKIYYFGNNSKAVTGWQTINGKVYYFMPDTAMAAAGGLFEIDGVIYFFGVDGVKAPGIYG
binder,measurement,value
B1,Kd,18.7 nM
